Measurements from paper PMC11076500, “Impact of distinct FG nucleoporin repeats on Nup98 self-association” (Nature Communications, 2024).
Numbering of substitutions follows the chain as printed. Numbers in names are those of the source.

B1: Nup98^FG(298-327) peptide (peptide, UniProt P52948 298-327, looked up)
peptide: TGFSFGNTSTIGQPSTNTMGLFGVTQASQP
notes: Forms amyloid fibrils; each fibril layer holds five peptides (four parallel, one antiparallel); source: synthetic peptide (solid-phase synthesis, Genscript)
B2: FG-repeat domain of human Nup98 (Nup98^FG; residues 1-384), wild type (protein)
chain: MFNKSFGTPFGGGTGGFGTTSTFGQNTGFGTTSGGAFGTSAFGSSNNTGGLFGNSQTKPGGLFGTSSFSQPATSTSTGFGFGTSTGTANTLFGTASTGTSLFSSQNNAFAQNKPTGFGNFGTSTSSGGLFGTTNTTSNPFGSTSGSLFGPSSFTAAPTGTTIKFNPPTGTDTMVKAGVSTNISTKHQCITAMKEYESKSLEELRLEDYQANRKGPQNQVGAGTTTGLFGSSPATSSATGLFSSSTTNSGFAYGQNKTAFGTSTTGFGTNPGGLFGQQNQQTTSLFSKPFGQATTTQNTGFSFGNTSTIGQPSTNTMGLFGVTQASQPGGLFGTATNTSTGTAFGTGTGLFGQTNTGFGAVGSTLFGNNKLTTFGSSTTSAPSFG
B3: Nup98^FG F102S mutant (protein)
chain: B2 chain with F102S
B4: Nup98^FG F102S/F319S double mutant (protein)
chain: B2 chain with F102S, F319S
B5: Nup98^FG F319S mutant (protein)
chain: B2 chain with F319S
B6: Nup98^FG F228S mutant (protein)
chain: B2 chain with F228S

Assays:
[1] = molecular target: the molecule itself; test: cryo-EM structure; amyloid fibrils from 2 mM peptide in water, 25 °C for one day; helical reconstruction, 2.67 Å; five peptides in each layer
[2] = molecular target: P52948; test: 1D 1H NMR (loss of the signal of soluble protein); 100 μM protein in 50 mM sodium phosphate, 1 mM TCEP; pH raised from 3 to 7 with NaOH, measured immediately (deadtime ~5 min); 5 °C; amide region integrated; self-association into particles not detectable by NMR; details: other: 1D 1H NMR (loss of the signal of soluble protein)

Protein | binding result [1] | percent of the protein aggregated just after changing the pH to 7 [2]
B1 | binds | 
B2 |  | 67 % of the wild-type protein forms aggregates
B3 |  | only 28 and 23 % of the protein aggregated, respectively
B4 |  | only 28 and 23 % of the protein aggregated, respectively
B5 |  | only 28 and 23 % of the protein aggregated, respectively
B6 |  | in the F228S mutant 46% of the protein aggregates
